For the test, the target named is Psy2 with aa 25–129 deleted, fused to lexA-DBD (S. cerevisiae). Briefly: two-hybrid.

This passage reports percent reduction of the two-hybrid interaction results from PMC5706562.

B1: DDC2 fused to B42-AD (natural protein)
chain: MRRETVGEFSSDDDDDILLELGTRPPRFTQIPPSSAALQTQIPTTLEVTTTTLNNKQSKNDNQLVNQLNKAQGEASMLRDKINFLNIEREKEKNIQAVKVNELQVKHLQELAKLKQELQKLEDEKKFLQMEARGKSKREVITNVKPPSTTLSTNTNTITPDSSSVAIEAKPQSPQSKKRKISDNLLKKNMVPLNPNRIIPDETSLFLESILLHQIIGADLSTIEILNRLKLDYITEFKFKNFVIAKGAPIGKSIVSLLLRCKKTLTLDRFIDTLLEDIAVLIKEISVHPNESKLAVPFLVALMYQIVQFRPSATHNLALKDCFLFICDLIRIYHHVLKVPIHESNMNLHVEPQIFQYELIDYLIISYSFDLLEGILRVLQSHPKQTYMEFFDENILKSFEFVYKLALTISYKPMVNVIFSAVEVVNIITSIILNMDNSSDLKSLISGSWWRDCITRLYALLEKEIKSGDVYNENVDTTTLHMSKYHDFFGLIRNIGDNELGGLISKLIYTDRLQSVPRVISKEDIGMDSDKFTAPIIGYKMEKWLLKLKDEVLNIFENLLMIYGDDATIVNGEMLIHSSKFLSREQALMIERYVGQDSPNLDLRCHLIEHTLTIIYRLWKDHFKQLREEQIKQVESQLIMSLWRFLVCQTETVTANEREMRDHRHLVDSLHDLTIKDQASYYEDAFEDLPEYIEEELKMQLNKRTGRIMQVKYDEKFQEMARTILESKSFDLTTLEEADSLYISMGL
B1 had a percent reduction of the two-hybrid interaction of 50%.
